Laboratory results taken from the RNAGym collection of RNA variant scans (doi:10.7554/elife.80360).

B1: CPEB3 Ribozyme (parent)
chain: GGGGGCCACAGCAGAAGCGUUCACGUCGCGGCCCCUGUCAGAUUCUGGUGAAUCUGCGAAUUCUGCUGU

Variants of: B1
Experiment: self-cleavage, relative activity (ratio to wild type); higher = more cleavage; co-transcriptional

Variant | self-cleavage
GGGCGCUACAGCAGAAGCGUUCACGUCGCGGCCCCUGUCAGAUUCUGGUGAAUCUGCGAAUUCUGCUGU | 0.129
GGGCGCAACAGCAGAAGCGUUCACGUCGCGGCCCCUGUCAGAUUCUGGUGAAUCUGCGAAUUCUGCUGU | 0.0992
GGGCGCCACAGCAGAAGCGUUCACGUCGCGGCCCGUGUCAGAUUCUGGUGAAUCUGCGAAUUCUGCUGU | 0.0833
GGGCGCCACAGCAGAAGCGUUCACGUCGCGGCCCAUGUCAGAUUCUGGUGAAUCUGCGAAUUCUGCUGU | 0.0948
GGGAGCCACAGCAGAAGCGUUCACGUCGCGGCCCCUGUCAGAUUCUGGUGAACCUGCGAAUUCUGCUGU | 0.617
GGGCGCCACAGCAGAGGCGUUCACGUCGCGGCCCCUGUCAGAUUCUGGUGAAUCUGCGAAUUCUGCUGU | 0.122
GGGAGCCACAGCAGAAGCGUUCACGUCGCGGCCCCUGUCAGAUUCUGGUGAAUCUGCGAAUUCUGCCGU | 0.986
GGGAGCCACAGCAGAAGCGUUCACGUCGCGGCCCCUGUCAGAUUCUGGUGAAUCUGCGAAUUCUGCGGU | 0.918
GGGAGCCACAGCAGAAGCGUUCACGUCGCGGCCCCUGUCAGAUUCUGGUGAAUCUGCGAAUUCUGCAGU | 0.92
GGGAGCCACAGCAGAAGCGUUCACGUCGCGGCCCCUGUCAGAUUCUGGUGAAUCGGCGAAUUCUGCUGU | 0.52
GGGCGCCACAGCAGAAGCGUUCACGUCGCGGCCCCUGUCAGAUUCUGGUGAAUCUGCGUAUUCUGCUGU | 0.203
GGGCGCCACAGCAGAAGCGUUCACGUCGCGGCCCCUGUCAGAUUCUGGUGAAUCUGCGGAUUCUGCUGU | 0.37
GGGCGCCACAGCAGAAGCGUUCACGUCGCGGCCCCUGUCAGAUUCUGGUGAAUGUGCGAAUUCUGCUGU | 0.175
GGGCGCCACAGCAGAAGCGUUCACGUCGCGGCCCCUGUCAGAUUCUGGUGAAUAUGCGAAUUCUGCUGU | 0.225
GGGCGCCACAGCAGAAGCGUUCACGUCGCGGCCCCUGUCAGAUUCUGGUGAAUUUGCGAAUUCUGCUGU | 0.562
GGGCGCCACAGCAGAAGCGUUCACGUCGCGGCCCCUGUCAGAUUCUGGUGACUCUGCGAAUUCUGCUGU | 0.38
GGGCGCCACAGCAGAAGCGUUCACGUCGCGGCCCCUGUCAGAUUCUGGUGAGUCUGCGAAUUCUGCUGU | 0.53
GGGCGCCACAGCAGAAGCGUUCACGUUGCGGCCCCUGUCAGAUUCUGGUGAAUCUGCGAAUUCUGCUGU | 0.0743
GGGCGCCACAGCAGAAGCGUUCACGUCGCGGCCCCUGUCAGAUUAUGGUGAAUCUGCGAAUUCUGCUGU | 0.419
GGGCGCCACAGCAGAAGCGUUCACGUCGCGGCCCCUGUCAGAUUGUGGUGAAUCUGCGAAUUCUGCUGU | 0.477
GGGCGCCACAGCAGAAGCGUUCACGUCGCGGCCCCUGUCAGAUUUUGGUGAAUCUGCGAAUUCUGCUGU | 0.733
GGGCGACACAGCAGAAGCGUUCACGUCGCGGCCCCUGUCAGAUUCUGGUGAAUCUGCGAAUUCUGCUGU | 0.0438
GGGCGGCACAGCAGAAGCGUUCACGUCGCGGCCCCUGUCAGAUUCUGGUGAAUCUGCGAAUUCUGCUGU | 0.0309
GGGCGCCACUGCAGAAGCGUUCACGUCGCGGCCCCUGUCAGAUUCUGGUGAAUCUGCGAAUUCUGCUGU | 0.802
GGGCGCCACAGCAGAAGCGUUCACGUCGCGGCCCCUGUCAGAUUCUGGUGAAUCUGCGAAUUUUGCUGU | 0.584
GGGCGCCACAGCAGAAGCGUUCACGUCGCGGCCCCUGUCAGAUUCUGGUGAAUCUGCGAAUUAUGCUGU | 0.217

Variant | self-cleavage
GGGAGCCACAGCAGAAGCGUUCACGUCGCGGCCCCUGUCAGAUGCUGGUGAAUCUGCGAAUUCUGCUGU | 0.558
GGGAGCCACAGCAGAAGCGUUCACGUCGCGGCCCCUGUCAGAUCCUGGUGAAUCUGCGAAUUCUGCUGU | 0.679
GGGAGCCACAGCAGAAGCGUUCACGUCGCGGCCCCUGUCAGAUACUGGUGAAUCUGCGAAUUCUGCUGU | 0.646
GGGCGCCACAGCAGAAGCGUUCACGUCGCGGCCCCUGUCCGAUUCUGGUGAAUCUGCGAAUUCUGCUGU | 0.202
GGGCGCCACAGCAGAAGCGUUCACGUCGCGGCCCCUGUCUGAUUCUGGUGAAUCUGCGAAUUCUGCUGU | 0.228
GGGCGCCACAGCAGAAGCGUUCACGUCGCGGCCCCUGUCGGAUUCUGGUGAAUCUGCGAAUUCUGCUGU | 0.526
GGGCGCCACAGCAGAAGCGUUCACGUCGCGGCCCCUGUUAGAUUCUGGUGAAUCUGCGAAUUCUGCUGU | 0.261
GGGCGCCACAGCAGAAGCGUUCACGUCGCGGCCCCUGUAAGAUUCUGGUGAAUCUGCGAAUUCUGCUGU | 0.223
GGGCGCCACAGCAGAAGCGUUCACGUCGGGGCCCCUGUCAGAUUCUGGUGAAUCUGCGAAUUCUGCUGU | 0.0753
GGGCGCCACAGCAGAAGCGUUCACGUCGAGGCCCCUGUCAGAUUCUGGUGAAUCUGCGAAUUCUGCUGU | 0.0787
GGGAGCCACAGCAGAAGCGUUCACGUCGCGGCCCCUGUCAGAUUCUGGUGAAUCUGCGAAGUCUGCUGU | 0.508
GGGAGCCACAGCAGAAGCGUUCACGUCGCGGCCCCUGUCAGAUUCUGGUGAAUCUGCGAAAUCUGCUGU | 0.477
GGGCGCCACAGCAGGAGCGUUCACGUCGCGGCCCCUGUCAGAUUCUGGUGAAUCUGCGAAUUCUGCUGU | 0.496
GGGCGCCACAGCAGCAGCGUUCACGUCGCGGCCCCUGUCAGAUUCUGGUGAAUCUGCGAAUUCUGCUGU | 0.145
GGGAGCCACAGCAGAAGCGUUCACGUCGCGGCCCCUGUCAGAUUCUGGUGAAUCUGCGAAUUCUGCUGA | 0.912
GGGAGCCACAGCAGAAGCGUUCACGUCGCGGCCCCUGUCAGAUUCUGGUGAAUCUGCGAAUUCUGCUGG | 0.985
GGGCGCCAUAGCAGAAGCGUUCACGUCGCGGCCCCUGUCAGAUUCUGGUGAAUCUGCGAAUUCUGCUGU | 0.937
GGGCGCCAGAGCAGAAGCGUUCACGUCGCGGCCCCUGUCAGAUUCUGGUGAAUCUGCGAAUUCUGCUGU | 0.899
GGGCGCCAAAGCAGAAGCGUUCACGUCGCGGCCCCUGUCAGAUUCUGGUGAAUCUGCGAAUUCUGCUGU | 0.905
GGGCCCCACAGCAGAAGCGUUCACGUCGCGGCCCCUGUCAGAUUCUGGUGAAUCUGCGAAUUCUGCUGU | 0.212
GGGCGCCACAGCAGAAGCGUUCACGUCGCGGCCCCUGUCAGAUUCUGGUGAAUCUGCGAAUUCUGAUGU | 0.396
GGGCGCCACAGCAGAAGCGUUCACGUCGCGGCCCCUGUCAGAUUCUGGUGAAUCUGCGAAUUCUGGUGU | 0.229
GGGCGCCACAGCAGAAGCGUUCACGUCGCGGCCCCUGUCAGAUUCUGGUGAAUCUGCGAAUUCUGUUGU | 0.678
GGGAGCCACAGCAGAAGCGUUCACGUCGCGGCCCCUGUCAGAUUCUGGGGAAUCUGCGAAUUCUGCUGU | 0.728
GGGAGCCACAGCAGAAGCGUUCACGUCGCGGCCCCUGUCAGAUUCUGGCGAAUCUGCGAAUUCUGCUGU | 0.916
GGGCGCCACAGCAGAAGCGUUCGCGUCGCGGCCCCUGUCAGAUUCUGGUGAAUCUGCGAAUUCUGCUGU | 0.349

Variant | self-cleavage
GGGCGCCACAGCAGAAGCGUUCCCGUCGCGGCCCCUGUCAGAUUCUGGUGAAUCUGCGAAUUCUGCUGU | 0.432
GGGCGCCACAGCAGAAGCGUUCACGUCGCGGCCGCUGUCAGAUUCUGGUGAAUCUGCGAAUUCUGCUGU | 0.0856
GGGAGCCACAGCAGAAGCGUUCACGUCGCGGCCCCUGUCAGAUUCUGGUGAAUCUGCGAAUCCUGCUGU | 0.587
GGGCGCCACAGCAGAAGCGUUCACGUCGCGGCCCCUGUCAGAUUCUGGUGCAUCUGCGAAUUCUGCUGU | 0.381
GGGCGCCACAGCAGAAGCGUUCACGUCGCGGCCCCUGUCAGAUUCUGGUGUAUCUGCGAAUUCUGCUGU | 0.493
GGGCGCCACAGCAGAAGCGUUCACGUCGCGGCCCCUGUCAGAUUCUGGUGGAUCUGCGAAUUCUGCUGU | 0.567
GGGCGCCACAGCAGAAGCGUUCACGUCGCGGUCCCUGUCAGAUUCUGGUGAAUCUGCGAAUUCUGCUGU | 0.198
GGGCGCCACAGCAGAAGCGUUCACGUCGCGGCCCCUGUCAGCUUCUGGUGAAUCUGCGAAUUCUGCUGU | 0.237
GGGCGCCACAGCAGAAGCGUUCACGUCGCGGCCCCUGUCAGUUUCUGGUGAAUCUGCGAAUUCUGCUGU | 0.354
GGGCGCCACAGCAGAAGCGUUAACGUCGCGGCCCCUGUCAGAUUCUGGUGAAUCUGCGAAUUCUGCUGU | 0.0918
GGGCGCCACAGCAGAAGCGUUCACGUCGCGGCCCCUGUCAGAUUCUGGUGAAUCUGAGAAUUCUGCUGU | 0.136
GGGCGCCACAGCUGAAGCGUUCACGUCGCGGCCCCUGUCAGAUUCUGGUGAAUCUGCGAAUUCUGCUGU | 0.302
GGGCGCCACAGCGGAAGCGUUCACGUCGCGGCCCCUGUCAGAUUCUGGUGAAUCUGCGAAUUCUGCUGU | 0.472
GGGCGCCACAGUAGAAGCGUUCACGUCGCGGCCCCUGUCAGAUUCUGGUGAAUCUGCGAAUUCUGCUGU | 0.608
GGGCGCCACAGAAGAAGCGUUCACGUCGCGGCCCCUGUCAGAUUCUGGUGAAUCUGCGAAUUCUGCUGU | 0.166
GGGCGCCACAGGAGAAGCGUUCACGUCGCGGCCCCUGUCAGAUUCUGGUGAAUCUGCGAAUUCUGCUGU | 0.148
GGGCGCCACAGCAGAAGCGUUCACGUCGCGGCCCCUGUCAGAUUCUGGUGAAUCUGCGAUUUCUGCUGU | 0.174
GGGCGCCCCAGCAGAAGCGUUCACGUCGCGGCCCCUGUCAGAUUCUGGUGAAUCUGCGAAUUCUGCUGU | 0.578
GGGCGCCUCAGCAGAAGCGUUCACGUCGCGGCCCCUGUCAGAUUCUGGUGAAUCUGCGAAUUCUGCUGU | 0.617
GGGCGCCGCAGCAGAAGCGUUCACGUCGCGGCCCCUGUCAGAUUCUGGUGAAUCUGCGAAUUCUGCUGU | 0.545
GGGCGCCACAGCAGAAGCGUUCAGGUCGCGGCCCCUGUCAGAUUCUGGUGAAUCUGCGAAUUCUGCUGU | 0.117
GGGCGCCACAGCAGAAGCGUUCAAGUCGCGGCCCCUGUCAGAUUCUGGUGAAUCUGCGAAUUCUGCUGU | 0.167
GGGCGCCACAGCAGAAGAGUUCACGUCGCGGCCCCUGUCAGAUUCUGGUGAAUCUGCGAAUUCUGCUGU | 0.0472
GGGCGCCACAGCAGAAGGGUUCACGUCGCGGCCCCUGUCAGAUUCUGGUGAAUCUGCGAAUUCUGCUGU | 0.0437
GGGCGCCACAGCAGAAGUGUUCACGUCGCGGCCCCUGUCAGAUUCUGGUGAAUCUGCGAAUUCUGCUGU | 0.129
GGGAGCCACAGCAGAAGCGUUCACGUCGCGGCCCCUGUCAGAUUCCGGUGAAUCUGCGAAUUCUGCUGU | 0.828
